Measurements as given in publication PMC2957524.

System: O=C(O)C(=O)CC1(C(=O)O)C=CC(O)C=C1
Assay: purified protein
Format: biochemical, Planktothrix agardhii
Conditions: non-aromatizing decarboxylation to endocyclic diene H2HPP

## AerD (Planktothrix agardhii NIVA-CYA 126/8)
  Km: 170 ± 3 µM
  kcat: 4.08 ± 0.017 s⁻¹
